Measurements published in publication PMC5982138, “Disruption of the GDP-mannose synthesis pathway in Streptomyces coelicolor results in antibiotic hyper-susceptible phenotypes” (Microbiology, 2018).

Substrate: O=P(O)(O)O[C@H]1O[C@H](CO)[C@@H](O)[C@H](O)[C@@H]1O
Test: purified protein
Assay type: biochemical, Streptomyces coelicolor
Conditions: GTP as co-substrate; cooperative (Hill fit)

B1: SCO4238 (Streptomyces coelicolor A3(2)) (protein)
chain: MTDPNAASRRPVQAVVLAGGQGSRLRPYTDDRPKPMVEIPGTGTPIIGHQLAWLAEEGVTDVVVSCGHLAEVLQKWLESADLPLSVTTVVETEPLGRGGGLRYAAAHLPHPDRSWYATNGDIWTRFSLRDMADFHAERDAVATLALARPRLPWGAVQTDGFGHITDFIEAPPSTFEINAGVYVFSPEFAAMLPERGDHERTTFPRLAREHRLAGFPIPQGSYWRAIDTAKDLTEAARELAALSGR
Question: B1 was tested. Which Km did it give?
Answer: 180 ± 30 µM
